Laboratory results: patent US12172986B2, “Splicing modulator antibody-drug conjugates and methods of use” (EISAI R&D MANAGEMENT CO., LTD., priority 2018, dated 2024)

B1: AB205-ADL1-D14 (conjugate)
heavy: QVQLQQSGSELMMPGASVKISCKATGYTFSNYWIQRPGHGLEWIGEILPGTGRTIYNEKFKGKATFTADISSNTVQMQLSSLTSEDSAVYYCARRDYYGNFYYAMDYWGQGTSVTVSSAKTTPPSVYPLAPGSAAQTNSMVTLGCLVKGYFPEPVTVTWNSGSLSSGVHTFPAVLQSDLYTLSSSVTVPSSTWPSETVTCNVAHPASSTKVDKKIVPRDCGCKPCICTVPEVSSVFIFPPKPKDVLTITLTPKVTCVVVDISKDDPEVQFSWFVDDVEVHTAQTQPREEQFNSTFRSVSELPIMHQDWLNGKEFKCRVNSAAFPAPIEKTISKTKGRPKAPQVYTIPPPKEQMAKDKVSLTCMITDFFPEDITVEWQWNGQPAENYKNTQPIMDTDGSYFVYSKLNVQKSNWEAGNTFTCSVLHEGLHNHHTEKSLSHSPG
light: DIQMTQSTSSLSASLGDRVTISCSASQGINNYLNWYQQKPDGTVELLIYYTSTLQSGVPSRFSGSGSGTDYSLTISNLEPEDIGTYYCQQYSKLPRTFGGGTKLEIKRADAAPTVSIFPPSSEQLTSGGASVVCFLNNFYPKDINVKWKIDGSERQNGVLNSWTDQDSKDSTYSMSSTLTLTKDEYERHNSYTCEATHKTSTSPIVKSFNRNEC
B2: AB205-ADL1-D1 (conjugate)
heavy: B1 heavy
light: B1 light
B3: AB205-ADL10-D1 (conjugate)
heavy: B1 heavy
light: B1 light
B4: AB205-ADL1-D4 (conjugate)
heavy: B1 heavy
light: B1 light
B5: AB205-ADL5-D15 (conjugate)
heavy: B1 heavy
light: B1 light
B6: AB205-ADL5-D19 (conjugate)
heavy: B1 heavy
light: B1 light
B7: AB205-ADL5-D25 (conjugate)
heavy: B1 heavy
light: B1 light

Test system: MOLP8 cells
Experiment: Cell viability, CD138-expressing MOLP8
Type: cell-based
Settings: anti-CD138 ADC; for GI50: read-out: GI50 (nM) (ADC)
Procedure: HCC1954 (American Type Culture Collection (ATCC)) breast ductal carcinoma cells were plated at 2000 cells/well in flat bottom 96-well tissue culture plates (Corning) in a total volume of 90 μL tissue culture medium supplemented with 10% fetal bovine serum (ThermoFisher Scientific). Cells were treated with a 3-fold serial dilution of compound from 200 nM to 0.03 nM. Each concentration was tested in triplicate. At the time of treatment, a plate of untreated cells was evaluated using CellTiter-Glo®2.0 Luminescent Cell Viability Assay according to the manufacturer's recommendations (Promega; #G9241). CellTiter-Glo® 2.0 reagent was added to the medium, incubated, and assayed on an EnVision Multilabel Reader (PerkinElmer). Values represent time zero (TO). […] Percentage growth inhibition was calculated as: [(T144-T0)/(C-TO)]×100 for concentrations for which T144>/=TO or [(T144-T0)/T0]×100 for concentrations for which T144<TO. The dose response curve plots were generated using Prism 7 (Graphpad) and fit using nonlinear regression analysis and the log(inhibitor) versus response-variable slope (four parameters).

Molecule | LD50 (nM) (ADC) | Rmin (%) (ADC) | GI50 [nM]
B1 | >400 | −74.008 | < 0.061
B2 | 0.656 | −100.099 | > 0.061
B3 | >400 | −25.099 | 0.08
B4 | 0.535 | −99.306 | < 0.061
B5 | >400 | 2.419 | 0.268
B6 | >400 | −46.23 | < 0.061
B7 | 11.669 | −76.736 | < 0.061
